Test results published in the supplement of paper PMC9732359.
± gives the uncertainty stated by the source.

Assay: protein stability index of a GFP-peptide fusion (yeast GPS) (PSI 1-4); higher = more stable; sorted into four equal gates, so the index is relative within each strain
Method in brief: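 Mid-log yeast cultures in leucine-free medium, carrying a pooled plasmid library, were sorted into four equal gates by their GFP/Cherry fluorescence ratio. Each plasmid expressed Cherry along with GFP fused upstream of a tiled 17-residue yeast protein peptide. Plasmids recovered from each gate were PCR-amplified and Illumina-sequenced, with reads assigned to strains by barcodes. The protein stability index was obtained by summing each gate's read frequency weighted by its gate number.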

## NKFMSIFLKRKDFTNKN [SRB8]
doa10∆
  protein stability index: 2.38 ± 0.067
pdr5∆
  protein stability index: 2.2 ± 0.082
san1∆
  protein stability index: 3.03 ± 0.058
ubr1∆
  protein stability index: 2.58 ± 0.065

## RENLHILNEVFTNPSIV [RRP6]
doa10∆
  protein stability index: 2.26 ± 0.076
pdr5∆
  protein stability index: 2.93 ± 0.063
san1∆
  protein stability index: 2.5 ± 0.058
ubr1∆
  protein stability index: 2.25 ± 0.053

## VLKKKNIQKKQPAKEKG [RRP6]
doa10∆
  protein stability index: 3 ± 0.085
pdr5∆
  protein stability index: 3.03 ± 0.067
san1∆
  protein stability index: 3.09 ± 0.042
ubr1∆
  protein stability index: 3.22 ± 0.044

## ETYVASYVVPRLYLKDQ [ECM29]
doa10∆
  protein stability index: 2.46 ± 0.1
pdr5∆
  protein stability index: 1.93 ± 0.088
san1∆
  protein stability index: 1.91 ± 0.24
ubr1∆
  protein stability index: 2.32 ± 0.054

## ANLRVLNSYWVNQDSTY [RPL15A]
doa10∆
  protein stability index: 2.62 ± 0.072
pdr5∆
  protein stability index: 2.23 ± 0.067
san1∆
  protein stability index: 2.78 ± 0.058
ubr1∆
  protein stability index: 2.37 ± 0.064

## QTVSNKEDAKATMENIQ [SRP54]
doa10∆
  protein stability index: 2.98 ± 0.062
pdr5∆
  protein stability index: 3.18 ± 0.066
san1∆
  protein stability index: 2.91 ± 0.075
ubr1∆
  protein stability index: 2.99 ± 0.056

## DLLDMIQFGAKNMFEKK [ISW2]
doa10∆
  protein stability index: 3.25 ± 0.14
pdr5∆
  protein stability index: 3.29 ± 0.24
san1∆
  protein stability index: 3 ± 0.16

## IVLSDQTQEFFLSSFDD [YJL039C/NUP192]
doa10∆
  protein stability index: 2.91 ± 0.12
pdr5∆
  protein stability index: 2.89 ± 0.093
san1∆
  protein stability index: 2.92 ± 0.057
ubr1∆
  protein stability index: 3.25 ± 0.13

## PEYFESPLQSSKSKQSF [YMR129W/POM152]
doa10∆
  protein stability index: 2.78 ± 0.12
pdr5∆
  protein stability index: 2.8 ± 0.08
san1∆
  protein stability index: 2.91 ± 0.084
ubr1∆
  protein stability index: 2.96 ± 0.076

## ASLNALKESIKNSTSSM [RPN1]
doa10∆
  protein stability index: 3.07 ± 0.087
pdr5∆
  protein stability index: 3.25 ± 0.098
san1∆
  protein stability index: 3.06 ± 0.063
ubr1∆
  protein stability index: 3.16 ± 0.076

## SVSPQMNAILTDVKLTL [SMD1]
doa10∆
  protein stability index: 2.85 ± 0.047
pdr5∆
  protein stability index: 2.85 ± 0.062
san1∆
  protein stability index: 2.83 ± 0.04
ubr1∆
  protein stability index: 3 ± 0.057

## FQKAQGSYAGHRKHIAV [YCG1]
pdr5∆
  protein stability index: 2.11 ± 0.28
san1∆
  protein stability index: 2.29 ± 0.22
ubr1∆
  protein stability index: 2.46 ± 0.095

## VDPIQSVKGKVVIDAFR [RPN11]
doa10∆
  protein stability index: 2.59 ± 0.072
pdr5∆
  protein stability index: 2.65 ± 0.092
san1∆
  protein stability index: 2.1 ± 0.093
ubr1∆
  protein stability index: 2.26 ± 0.081

## LQGQMEKIMILLVPLAL [CSN12]
doa10∆
  protein stability index: 1.84 ± 0.048
pdr5∆
  protein stability index: 1.63 ± 0.04
san1∆
  protein stability index: 1.3 ± 0.074
ubr1∆
  protein stability index: 1.52 ± 0.045

## EAMMLKEEGLQQFNLHE [MED1]
doa10∆
  protein stability index: 2.97 ± 0.16
pdr5∆
  protein stability index: 3.26 ± 0.15
san1∆
  protein stability index: 3.17 ± 0.12
ubr1∆
  protein stability index: 2.61 ± 0.12

## TIVLSLNVKCTRNPDAP [RPC40]
doa10∆
  protein stability index: 1.66 ± 0.091
pdr5∆
  protein stability index: 2.14 ± 0.18
san1∆
  protein stability index: 2.91 ± 0.13

## FKKQMQTIMKMGPLSNI [SRP54]
doa10∆
  protein stability index: 2.59 ± 0.11
pdr5∆
  protein stability index: 3.14 ± 0.074
san1∆
  protein stability index: 3.03 ± 0.1
ubr1∆
  protein stability index: 2.92 ± 0.072

## IAKLSVIPIRRGYWGTN [RPS2]
doa10∆
  protein stability index: 2.02 ± 0.073
pdr5∆
  protein stability index: 1.67 ± 0.11
san1∆
  protein stability index: 1.93 ± 0.19
ubr1∆
  protein stability index: 1.76 ± 0.12

## SVINNYLREDQMIDTSI [NUT1]
doa10∆
  protein stability index: 2.99 ± 0.074
pdr5∆
  protein stability index: 3.32 ± 0.1
san1∆
  protein stability index: 3.32 ± 0.083
ubr1∆
  protein stability index: 2.84 ± 0.082

## SIPMGGQSINDSLKKLL [ARP9]
doa10∆
  protein stability index: 2.39 ± 0.06
pdr5∆
  protein stability index: 2.46 ± 0.063
san1∆
  protein stability index: 2.47 ± 0.08
ubr1∆
  protein stability index: 2.61 ± 0.056

## TFNSKPVRTIVPISTSQ [SIR4]
doa10∆
  protein stability index: 2.32 ± 0.037
pdr5∆
  protein stability index: 2.46 ± 0.037
san1∆
  protein stability index: 2.42 ± 0.039
ubr1∆
  protein stability index: 2.35 ± 0.028

## LFIGLFTRPLFVLLEIE [YCS4]
doa10∆
  protein stability index: 1.82 ± 0.092
pdr5∆
  protein stability index: 1.98 ± 0.083
san1∆
  protein stability index: 2.11 ± 0.15
ubr1∆
  protein stability index: 1.61 ± 0.093

## VAESFTDEADSSMTEAS [SNF2]
doa10∆
  protein stability index: 3.46 ± 0.12
pdr5∆
  protein stability index: 3.28 ± 0.11
san1∆
  protein stability index: 3.38 ± 0.053
ubr1∆
  protein stability index: 3.14 ± 0.096

## VNDTVKIDLASGKITDF [RPS4A]
doa10∆
  protein stability index: 3.07 ± 0.12
pdr5∆
  protein stability index: 3.17 ± 0.1
san1∆
  protein stability index: 3.26 ± 0.12
ubr1∆
  protein stability index: 2.71 ± 0.15

## ECPAIPIFNYIFTEKIY [YJL039C/NUP192]
doa10∆
  protein stability index: 1.34 ± 0.035
pdr5∆
  protein stability index: 1.46 ± 0.038
san1∆
  protein stability index: 1.43 ± 0.071
ubr1∆
  protein stability index: 1.4 ± 0.034

## KGTNDEGTSISVHLIEC [YCS4]
doa10∆
  protein stability index: 2.78 ± 0.094
pdr5∆
  protein stability index: 2.73 ± 0.071
san1∆
  protein stability index: 2.69 ± 0.11
ubr1∆
  protein stability index: 3.2 ± 0.059

## DQVLVKGGEQISQLYSD [YJL041W/NSP1]
doa10∆
  protein stability index: 3.18 ± 0.091
pdr5∆
  protein stability index: 3.16 ± 0.082
san1∆
  protein stability index: 3.2 ± 0.061
ubr1∆
  protein stability index: 3.16 ± 0.091

## QQQQQQQQGQIPQSQQV [SNF5]
doa10∆
  protein stability index: 2.231 ± 0.016
pdr5∆
  protein stability index: 2.63 ± 0.018
san1∆
  protein stability index: 2.257 ± 0.02
ubr1∆
  protein stability index: 2.511 ± 0.02

## LGRLNKLRKIAISKKNK [LIN1]
doa10∆
  protein stability index: 2 ± 0.083
pdr5∆
  protein stability index: 1.74 ± 0.096
san1∆
  protein stability index: 1.39 ± 0.23
ubr1∆
  protein stability index: 1.47 ± 0.072

## SEDDSESGKVFIGRLPI [RPB2]
doa10∆
  protein stability index: 3.36 ± 0.08
pdr5∆
  protein stability index: 3.19 ± 0.073
san1∆
  protein stability index: 3.31 ± 0.055
ubr1∆
  protein stability index: 3.29 ± 0.043

## LVVYAEDNGIVKALRNV [RPL4A]
doa10∆
  protein stability index: 2.1 ± 0.14
pdr5∆
  protein stability index: 3.16 ± 0.12
san1∆
  protein stability index: 2.59 ± 0.086
ubr1∆
  protein stability index: 2.57 ± 0.12

## SFTDILKSAIRDEIAKN [RPN12]
doa10∆
  protein stability index: 2.76 ± 0.1
pdr5∆
  protein stability index: 2.98 ± 0.12
san1∆
  protein stability index: 3.08 ± 0.09
ubr1∆
  protein stability index: 2.89 ± 0.065

## GEKKVGSNGELFGGRHY [SWP82]
doa10∆
  protein stability index: 3.13 ± 0.2
pdr5∆
  protein stability index: 3.26 ± 0.13
san1∆
  protein stability index: 3.73 ± 0.12

## YLNSRIIPTTLEEQQQL [YML103C/NUP188]
doa10∆
  protein stability index: 1.97 ± 0.039
pdr5∆
  protein stability index: 2.04 ± 0.042
san1∆
  protein stability index: 1.82 ± 0.071
ubr1∆
  protein stability index: 2.13 ± 0.052

## FKATIQILQGICKNCSA [RPO31]
doa10∆
  protein stability index: 1.69 ± 0.044
pdr5∆
  protein stability index: 1.77 ± 0.038
san1∆
  protein stability index: 1.76 ± 0.061
ubr1∆
  protein stability index: 1.79 ± 0.046

## TNLQRNVDRLYKLNVRS [NUT2]
doa10∆
  protein stability index: 3.66 ± 0.19
pdr5∆
  protein stability index: 3.62 ± 0.2
san1∆
  protein stability index: 3.01 ± 0.18
ubr1∆
  protein stability index: 3.49 ± 0.073

## RGVTKVGFGESNFTSII [SMC1]
doa10∆
  protein stability index: 3.56 ± 0.19
pdr5∆
  protein stability index: 3.33 ± 0.11
san1∆
  protein stability index: 3.09 ± 0.15
ubr1∆
  protein stability index: 3.08 ± 0.08

## DKSTKTAEAPTLSFNFS [YOR098C/NUP1]
doa10∆
  protein stability index: 3.27 ± 0.076
pdr5∆
  protein stability index: 3.29 ± 0.083
san1∆
  protein stability index: 3.24 ± 0.051
ubr1∆
  protein stability index: 3.23 ± 0.084

## RVERSSRSTDNFHNSKK [RRI1]
doa10∆
  protein stability index: 3.31 ± 0.076
pdr5∆
  protein stability index: 3.25 ± 0.078
san1∆
  protein stability index: 2.99 ± 0.082
ubr1∆
  protein stability index: 3.08 ± 0.057

## QAQAQVYAQQSTVQTPI [PGD1]
doa10∆
  protein stability index: 2.8 ± 0.052
pdr5∆
  protein stability index: 2.91 ± 0.055
san1∆
  protein stability index: 2.83 ± 0.048
ubr1∆
  protein stability index: 2.95 ± 0.059

## FNRDNKVSPAAAAKKAL [RPS26B]
doa10∆
  protein stability index: 2.4 ± 0.12
pdr5∆
  protein stability index: 2.5 ± 0.21
san1∆
  protein stability index: 2.61 ± 0.11
ubr1∆
  protein stability index: 2.79 ± 0.12

## EVCAKMPNIELYLKVIP [SSN2]
doa10∆
  protein stability index: 2.71 ± 0.047
pdr5∆
  protein stability index: 2.51 ± 0.045
san1∆
  protein stability index: 2.48 ± 0.052
ubr1∆
  protein stability index: 2.26 ± 0.039

## LLVDIQKYNQIQKQIET [SMC2]
doa10∆
  protein stability index: 1.92 ± 0.055
pdr5∆
  protein stability index: 1.86 ± 0.05
san1∆
  protein stability index: 2.2 ± 0.081
ubr1∆
  protein stability index: 1.65 ± 0.04

## VQYKLLSISVPSDVNID [SNU114]
doa10∆
  protein stability index: 1.98 ± 0.076
pdr5∆
  protein stability index: 2.5 ± 0.069
san1∆
  protein stability index: 2.1 ± 0.074
ubr1∆
  protein stability index: 2.44 ± 0.069

## NPDDDYGFKQEIFDVTS [FAS1]
doa10∆
  protein stability index: 3.38 ± 0.25
pdr5∆
  protein stability index: 3.45 ± 0.11
san1∆
  protein stability index: 3.17 ± 0.1
ubr1∆
  protein stability index: 3.31 ± 0.055

## SQTTQLAGMDVEDALDK [FAS2]
doa10∆
  protein stability index: 3.31 ± 0.094
pdr5∆
  protein stability index: 3.47 ± 0.11
san1∆
  protein stability index: 3.31 ± 0.083
ubr1∆
  protein stability index: 3.62 ± 0.071

## KQANNFLWPFKLSNPSG [RPL7A]
doa10∆
  protein stability index: 2.69 ± 0.13
pdr5∆
  protein stability index: 3.02 ± 0.12
san1∆
  protein stability index: 3.09 ± 0.1
ubr1∆
  protein stability index: 2.74 ± 0.11

## SMKDRAQHAVILDQEKY [RPS25A]
doa10∆
  protein stability index: 1.55 ± 0.094
pdr5∆
  protein stability index: 2 ± 0.13
san1∆
  protein stability index: 2.42 ± 0.14
ubr1∆
  protein stability index: 2.23 ± 0.081

## VIVPLSTLSNWSSEFAK [SNF2]
doa10∆
  protein stability index: 2.65 ± 0.049
pdr5∆
  protein stability index: 2.35 ± 0.06
san1∆
  protein stability index: 2.52 ± 0.051
ubr1∆
  protein stability index: 2.6 ± 0.038

## SQKAKLMTFNAETKSYD [YLR335W/NUP2]
doa10∆
  protein stability index: 2.55 ± 0.065
pdr5∆
  protein stability index: 2.27 ± 0.046
san1∆
  protein stability index: 2.3 ± 0.057
ubr1∆
  protein stability index: 2.92 ± 0.053

## DKQGWTPLFHALAEGHG [NAS6]
doa10∆
  protein stability index: 2.75 ± 0.2
pdr5∆
  protein stability index: 2.34 ± 0.098
san1∆
  protein stability index: 2.99 ± 0.13
ubr1∆
  protein stability index: 3.01 ± 0.17

## QGEEEELIALNLSEARL [RPB4]
doa10∆
  protein stability index: 3.22 ± 0.12
pdr5∆
  protein stability index: 3.53 ± 0.14
san1∆
  protein stability index: 3.22 ± 0.078
ubr1∆
  protein stability index: 3.26 ± 0.095
